Legend:
[1] = biological target: hPD-1 (Sino Biological Inc., Catalog No.: 10377-H03H-B) (human) (UniProt Q15116); assay: BLI (Octet) as in Example 4, biotinylated hPD-1 on streptavidin biosensor
[2] = biological target: T1, hPD-1 (Sino Biological Inc., Catalog No.: 10377-H03H-B) (human, UniProt Q15116 25-167); assay: as above
T1 construct: Bought protein; also called human PD-1; purified hPD-1
Procedure: (§1) A streptavidin biosensor was pre-wetted by immersing in PBS in a well for 10 minutes, and then the biosensor was equilibrated with PBS for 2 minutes. The biosensor was immersed in the solution of 20 μg/mL biotinylated hPD-1 in PBS for 5 minutes to couple with biotinylated hPD-1, and then was equilibrated with PBS for 2 minutes. The biosensors were placed in wells containing antibody solutions of various concentrations (0.125 to 2 nM, SDS-PAGE purity >99%) to observe their binding to the anti-PD-1 antibody, and the binding was monitored and measured for 30 minutes. After the biosensor was transferred to PBS, dissociation was monitored and measured for 90 minutes. The observed binding and dissociation rates (kbinding and kdissociation) were fitted with a 1:1 binding global fit model containing all test concentrations, and the equilibrium binding constant KD was calculated.
The amino acid sequences of VL and VH regions of the related antibodies are shown in the sequence listing.

[3] = biological target: T2, hPD-1 on hPD-1-expressing Jurkat cells (Promega, Catalog No.: J1252) (human, UniProt Q15116 25-288); assay: cell-based or functional assay
T2 sequence (Q15116 25-288): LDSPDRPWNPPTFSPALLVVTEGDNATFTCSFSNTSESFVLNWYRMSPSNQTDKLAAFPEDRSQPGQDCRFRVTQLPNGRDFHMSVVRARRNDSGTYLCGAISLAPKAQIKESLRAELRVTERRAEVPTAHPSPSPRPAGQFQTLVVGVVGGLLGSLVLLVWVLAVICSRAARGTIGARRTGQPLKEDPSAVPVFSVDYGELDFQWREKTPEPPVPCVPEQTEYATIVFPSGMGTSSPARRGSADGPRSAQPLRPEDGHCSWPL

[4] = biological target: T2, hPD-1 on hPD-1-expressing Jurkat cells …; assay: flow cytometry, blocking of 1 ug/mL unlabeled hPD-L1 binding to hPD-1-expressing Jurkat cells
Procedure: The blocking of ligand binding was assayed by flow cytometry. […] The mixture was placed on ice for 30 minutes, washed 3 times with FACS buffer (PBS containing 0.3% BSA), and incubated with PE-labeled goat anti-human Fc on ice for another 30 minutes. Cells were washed three more times with FACS buffer and analyzed by flow cytometry. Data were analyzed using nonlinear regression of Prism software, and IC₅₀ values were calculated.

[5] = biological target: T1, hPD-1 (Sino Biological Inc., Catalog …); assay: BLI (ForteBio Octet), biotinylated hPD-1 on streptavidin biosensor, antibody in solution, 1:1 global fit
Procedure: The assay was performed by coupling a hPD-1 fusion protein to a streptavidin biosensor using biotin.
as §1

[6] = biological target: T1, hPD-1 (Sino Biological Inc., Catalog …); assay: ELISA, hPD-1 coated on the plate
Procedure: The binding of the antibodies to hPD-1 was determined by enzyme-linked immunosorbent assay (ELISA). hPD-1 was coated on a 96-well plate by incubation overnight at 4° C. After coating, the plate was washed 5 times with PBST. […] After the binding, the plate was washed 5 times with PBST. The resulting solution was incubated at room temperature in PBST that contained peroxidase (HRP)-labeled goat anti-mouse IgG solution diluted to 1/10000 for 1 hour, washed again, and developed with TMB.

[7] = biological target: T1, hPD-1 (Sino Biological Inc., Catalog …); assay: SPR (Biacore), antibody captured on protein A chip, PD-1 in solution 0.625-10 nM, 1:1 Langmuir fit
Procedure: A protein A chip was used for detection. […] Then the flow rate was adjusted to 30 μl/min, and PD-1 solutions of different concentrations (0.625 nM, 1.25 nM, 2.5 nM, 5 nM, and 10 nM) were fed in sequence, with a binding time of 180 s and a dissociation time of 1,200 s.

Chain of hPD-1 (Sino Biological Inc., Catalog No.: 10377-H03H-B) (human) (Q15116 25-167): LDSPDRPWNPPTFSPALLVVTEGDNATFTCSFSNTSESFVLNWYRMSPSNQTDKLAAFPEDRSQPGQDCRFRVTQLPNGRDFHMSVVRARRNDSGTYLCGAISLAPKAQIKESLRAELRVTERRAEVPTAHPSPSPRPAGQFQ
T1 sequence (Q15116 25-167): as above

Binder | Kd [1] | Kd [2] | EC50 [6] | further results
CL1 VH (SEQ ID NO: 7) / CL1 VL (SEQ ID NO: 8), scFv (scFv, part only; not given: linker, domain order, tag, V domains shown, not shown: another chain or arm of the molecule; small tags and cut ends) VH: QVQLVQSGVEVKKPGASVKVSCKASGYTFTNYYMYWVRQAPGQGLEWMGGINPSNGGTNFNEKFKNRVTLTTDSSTTTAYMELKSLQFDDTAVYYCAARDYRLDMGFEFWGQGTTVTVSS VL: EIVLTQSPATLSLSPGERATLSCRASKGVSTSGYSYLHWYQQKPGQAPRLLIYLASYLESGVPARFSGSGSGTDFTLTISSLEPEDFAVYYCQHAYDLPLTFGGGTKVEIK | 0.082 nM |  |  | 
CL1 VH (SEQ ID NO: 7) / CL5 VL (SEQ ID NO: 10), scFv (scFv, part only; not given: linker, domain order, tag, V domains shown, not shown: another chain or arm of the molecule; small tags and cut ends) VH: QVQLVQSGVEVKKPGASVKVSCKASGYTFTNYYMYWVRQAPGQGLEWMGGINPSNGGTNFNEKFKNRVTLTTDSSTTTAYMELKSLQFDDTAVYYCAARDYRLDMGFEFWGQGTTVTVSS VL: EIVLTQSPATLSLSPGERATLSCRASKGVSTSGYSYLHWYQQKPGQAPRLLIYLASYLESGVPARFSGSGSGTDFTLTISSLEPEDFAVYYCQHSYDLPLTFGGGTKVEIK | 0.143 nM |  |  | 
CL1 VH (SEQ ID NO: 7) / CL9 VL (SEQ ID NO: 12), scFv (scFv, part only; not given: linker, domain order, tag, V domains shown, not shown: another chain or arm of the molecule; small tags and cut ends) VH: QVQLVQSGVEVKKPGASVKVSCKASGYTFTNYYMYWVRQAPGQGLEWMGGINPSNGGTNFNEKFKNRVTLTTDSSTTTAYMELKSLQFDDTAVYYCAARDYRLDMGFEFWGQGTTVTVSS VL: EIVLTQSPATLSLSPGERATLSCRASKGVSTSGYSYLHWYQQKPGQAPRLLIYLASYLESGVPARFSGSGSGTDFTLTISSLEPEDFAVYYCQHSYGLPVTFGGGTKVEIK | 0.518 nM |  |  | 
CL1 VH (SEQ ID NO: 7) / CL2 VL (SEQ ID NO: 38), scFv (scFv, part only; not given: linker, domain order, tag, V domains shown, not shown: another chain or arm of the molecule; small tags and cut ends) VH: QVQLVQSGVEVKKPGASVKVSCKASGYTFTNYYMYWVRQAPGQGLEWMGGINPSNGGTNFNEKFKNRVTLTTDSSTTTAYMELKSLQFDDTAVYYCAARDYRLDMGFEFWGQGTTVTVSS VL: EIVLTQSPATLSLSPGERATLSCRASKGVSTSGYSYLHWYQQKPGQAPRLLIYLASYLESGVPARFSGSGSGTDFTLTISSLEPEDFAVYYCQHSYGLPLTFGGGTKVEIK | 0.447 nM |  |  | 
CL1 VH (SEQ ID NO: 7) / CL7 VL (SEQ ID NO: 40), scFv (scFv, part only; not given: linker, domain order, tag, V domains shown, not shown: another chain or arm of the molecule; small tags and cut ends) VH: QVQLVQSGVEVKKPGASVKVSCKASGYTFTNYYMYWVRQAPGQGLEWMGGINPSNGGTNFNEKFKNRVTLTTDSSTTTAYMELKSLQFDDTAVYYCAARDYRLDMGFEFWGQGTTVTVSS VL: EIVLTQSPATLSLSPGERATLSCRASKGVSTSGYSYLHWYQQKPGQAPRLLIYLASYLESGVPARFSGSGSGTDFTLTISSLEPEDFAVYYCQHSYSFPLTFGGGTKVEIK | 0.149 nM |  |  | 
antibody CL1 (antibody, human IgG4 S228P, kappa, V domains shown, also called anti-hPD-1 antibody CL1; CL1 VH / CL1 VL IgG4) VH: QVQLVQSGVEVKKPGASVKVSCKASGYTFTNYYMYWVRQAPGQGLEWMGGINPSNGGTNFNEKFKNRVTLTTDSSTTTAYMELKSLQFDDTAVYYCAARDYRLDMGFEFWGQGTTVTVSS VL: EIVLTQSPATLSLSPGERATLSCRASKGVSTSGYSYLHWYQQKPGQAPRLLIYLASYLESGVPARFSGSGSGTDFTLTISSLEPEDFAVYYCQHAYDLPLTFGGGTKVEIKR |  | 0.0207 nM | 0.208 nM | Assay for the functional activity EC50 [3]: 0.269 µg/mL; IC50 [4]: 0.77 nM; Kd [5]: 0.0207 nM; koff [5]: 4.11e-05 s⁻¹; kon [5]: 1.98e+06 M⁻¹ s⁻¹; Kd [7]: 0.606 nM; koff [7]: 0.0005 s⁻¹; kon [7]: 825000 M⁻¹ s⁻¹
CL1 VH (SEQ ID NO: 7) / CL5 VL (SEQ ID NO: 10), IgG4 (antibody, V domains shown, Form IgG4) VH: QVQLVQSGVEVKKPGASVKVSCKASGYTFTNYYMYWVRQAPGQGLEWMGGINPSNGGTNFNEKFKNRVTLTTDSSTTTAYMELKSLQFDDTAVYYCAARDYRLDMGFEFWGQGTTVTVSS VL: EIVLTQSPATLSLSPGERATLSCRASKGVSTSGYSYLHWYQQKPGQAPRLLIYLASYLESGVPARFSGSGSGTDFTLTISSLEPEDFAVYYCQHSYDLPLTFGGGTKVEIK |  | 0.076 nM |  | 
CL1 VH (SEQ ID NO: 7) / CL2 VL (SEQ ID NO: 38), IgG4 (antibody, V domains shown, Form IgG4) VH: QVQLVQSGVEVKKPGASVKVSCKASGYTFTNYYMYWVRQAPGQGLEWMGGINPSNGGTNFNEKFKNRVTLTTDSSTTTAYMELKSLQFDDTAVYYCAARDYRLDMGFEFWGQGTTVTVSS VL: EIVLTQSPATLSLSPGERATLSCRASKGVSTSGYSYLHWYQQKPGQAPRLLIYLASYLESGVPARFSGSGSGTDFTLTISSLEPEDFAVYYCQHSYGLPLTFGGGTKVEIK |  | 0.189 nM |  | 
CL1 VH (SEQ ID NO: 7) / CL7 VL (SEQ ID NO: 40), IgG4 (antibody, V domains shown, Form IgG4) VH: QVQLVQSGVEVKKPGASVKVSCKASGYTFTNYYMYWVRQAPGQGLEWMGGINPSNGGTNFNEKFKNRVTLTTDSSTTTAYMELKSLQFDDTAVYYCAARDYRLDMGFEFWGQGTTVTVSS VL: EIVLTQSPATLSLSPGERATLSCRASKGVSTSGYSYLHWYQQKPGQAPRLLIYLASYLESGVPARFSGSGSGTDFTLTISSLEPEDFAVYYCQHSYSFPLTFGGGTKVEIK |  | 0.061 nM |  | 
CL1 VH (SEQ ID NO: 7) / CL9 VL (SEQ ID NO: 12), IgG4 (antibody, V domains shown, Form IgG4) VH: QVQLVQSGVEVKKPGASVKVSCKASGYTFTNYYMYWVRQAPGQGLEWMGGINPSNGGTNFNEKFKNRVTLTTDSSTTTAYMELKSLQFDDTAVYYCAARDYRLDMGFEFWGQGTTVTVSS VL: EIVLTQSPATLSLSPGERATLSCRASKGVSTSGYSYLHWYQQKPGQAPRLLIYLASYLESGVPARFSGSGSGTDFTLTISSLEPEDFAVYYCQHSYGLPVTFGGGTKVEIK |  | 0.229 nM |  | 
antibody CL2 (antibody, human IgG4, V domains shown) VH: QVQLVQSGVEVKKPGASVKVSCKASGYTFTNYYMYWVRQAPGQGLEWMGGINPSNGGTNFNEKFKNRVTLTTDSSTTTAYMELKSLQFDDTAVYYCAARDYKFDMGFEYWGQGTTVTVSS VL: EIVLTQSPATLSLSPGERATLSCRASKGVSTSGYSYLHWYQQKPGQAPRLLIYLASYLESGVPARFSGSGSGTDFTLTISSLEPEDFAVYYCQHSYGLPLTFGGGTKVEIK |  |  | 0.451 nM | 
antibody CL5 (antibody, human IgG4, V domains shown) VH: QVQLVQSGVEVKKPGASVKVSCKASGYTFTNYYMYWVRQAPGQGLEWMGGINPSNGGTNFNEKFKNRVTLTTDSSTTTAYMELKSLQFDDTAVYYCAARDYRFDMGFEYWGQGTTVTVSS VL: EIVLTQSPATLSLSPGERATLSCRASKGVSTSGYSYLHWYQQKPGQAPRLLIYLASYLESGVPARFSGSGSGTDFTLTISSLEPEDFAVYYCQHSYDLPLTFGGGTKVEIK |  |  | 0.399 nM | Assay for the functional activity EC50 [3]: 0.932 µg/mL
antibody CL6 (antibody, human IgG4, V domains shown) VH: QVQLVQSGVEVKKPGASVKVSCKASGYTFTNYYMYWVRQAPGQGLEWMGGINPSNGGTNFNEKFKNRVTLTTDSSTTTAYMELKSLQFDDTAVYYCAARDYRFDMGFEFWGQGTTVTVSS VL: EIVLTQSPATLSLSPGERATLSCRASKGVSTSGYSYLHWYQQKPGQAPRLLIYLASYLESGVPARFSGSGSGTDFTLTISSLEPEDFAVYYCQHSYDLPLTFGGGTKVEIK |  |  | 1.34 nM | 
antibody CL7 (antibody, human IgG4, V domains shown) VH: QVQLVQSGVEVKKPGASVKVSCKASGYTFTNYYMYWVRQAPGQGLEWMGGINPSNGGTNFNEKFKNRVTLTTDSSTTTAYMELKSLQFDDTAVYYCAARDYRFDMGFEFWGQGTTVTVSS VL: EIVLTQSPATLSLSPGERATLSCRASKGVSTSGYSYLHWYQQKPGQAPRLLIYLASYLESGVPARFSGSGSGTDFTLTISSLEPEDFAVYYCQHSYSFPLTFGGGTKVEIK |  |  | 0.346 nM | 
antibody CL9 (antibody, human IgG4, V domains shown) VH: QVQLVQSGVEVKKPGASVKVSCKASGYTFTNYYMYWVRQAPGQGLEWMGGINPSNGGTNFNEKFKNRVTLTTDSSTTTAYMELKSLQFDDTAVYYCAARDYKFDMGFEFWGQGTTVTVSS VL: EIVLTQSPATLSLSPGERATLSCRASKGVSTSGYSYLHWYQQKPGQAPRLLIYLASYLESGVPARFSGSGSGTDFTLTISSLEPEDFAVYYCQHSYGLPVTFGGGTKVEIK |  |  | 0.594 nM | 

Reference: patent US20220204623A1 (BIO THERA SOLUTIONS, published 2022)
